Test results taken from the DeepSol protein solubility set.

Test: soluble on expression in E. coli; label from the status in PepcDB or PDB records
In the case of “SLPVSYIENQSAVINQGDFLTQLSNIKNYSSKLSTNFYDNYEKITNWVLSGANINELTQFNIQPQIMRGFDGFQNVLMTGYYSPILYARHSPQGQFKNPIYRMPVKKRLSRAQIYAGALAGKRLELAYSDSMLENFLLGVQGSGYVDFGDGNLNYFAYAGQNGYPYTAIGRLLVEDGEIPKEKMSIQAIREWGNRNPSRIQSLLERNEAYVFFKNDPSGKVKGSAGVPLVAMASVASDRNIIPSGSVLLVEVPDIDNNGNWLGTHKLHLMVALDVGGAVKGHHFDLYRGIGARAGHIAGLSKHYGRVWVLR”, the “soluble on expression in E. coli” value is reported as “soluble”. For “MIGRNRYAMLTVDTEALPKRAVQDHIKRLMWGEHDGGCAGIREMCAIGNECGVKQVFFVDMCGAYACLDQTLDVVRWLDQDGQDVQLHAHPEYLPEQFWKEHGFKYRPRFLNQYGIEKATFTIKYFGKLISDLTGKPLRAFRAGSFRWNADTLRALQEAGVSLSFNNSMNARLKGQCTYSEPTNHSYLWSNGVIEVPVTERKFFPLFGKEWWGRLQFPVGDWLGSPPWRVLRPYTVGADPSFLVVLLHSWSLLYWDKDGYAVYRDDKRIEDYRKLVRRLARDYDIITTADFLDLYACGKIKTTHTADLSLAEFKAVKKLEHHHHHH”, the “soluble on expression in E. coli” value was “not soluble”. In the case of “SNAMAKNKLLRMDNVSIVVESLDNAISFFEEIGLNLEGRANVEGEWAGRVTGLGSQCVEIAMMVTPDGHSRIELSRFLTPPTIADHRTAPVNALGYLRVMFTVEDIDEMVSRLTKHGAELVGEVVQYENSYRLCYIRGVEGILIGLAEELGNK”, the “soluble on expression in E. coli” value is reported as “soluble”. In the case of “MNDQEFFTVHHALTINVEPLAEHFTLPSHEIFEAEIPAPFVVASEFSQLEQLSDSARMELKNSDFKSVLQLLEAQNAKLNLLLTFMLSQQDDPQSRSATTRFGASQLTYLAKSPLQIGQKVRVKLFLEYPAAAIYCYASVMQCQQEPEHTLVTLKYDLLRDVDQDLLIKAALYQQQRLLRQRSLDREKPQA”, the “soluble on expression in E. coli” value is reported as “soluble”. In the case of “RNRFTRRKIVYIHEGMNVPLLGYNAFGLIDRGTNLIQVRGSTGCNLSCIFCSVDEGPYSRTRNLDFVVDVDYLMKWFDWVAKEKGKGLEAHLDAQGEPLLYPYIVELVQELRSHPHVSVISMQSNGVLLDEKLVEELAEAGLDRVNLSIHSLDPEKAKMLMGMKNYDLNHVLEMAEALVNAGIDVLIAPVIIFGINDNEAEAFIEFARRIGAGKRWPALGFQNYVPYKFGRNPVIAKPVPFKEFYEWLRMLEEKTGMRPLVLKPHHFGMHPRPFIPLAFKR”, the “soluble on expression in E. coli” value is reported as “not soluble”. With “MIRFLGNIEVRADAKGRVFIPATFRKQLQAASEERLIMRKDVFQDCLTLYPESVWNEELNELRSRLNKWNSKHQLIFRQFVSDVEVVTPDSNGRILIPKRYLQICNIRGDIRFIGIDNKIEIWAKERAEQPFMSPEEFGAALEEIMNDENRQDGER” the “soluble on expression in E. coli” value was “not soluble”. For “GPGSMWFGTKNQRKAPQIPFPKRNKTKQRRASRRVRARVRTGNKPEHAIGGTGCASSRMRRGLDGSNTAAPGCDVSSHLSTPVHRPLRCAQPLFVFKSTSLRASLRNTCHHARHRARPYAHGSVSPPLSPSLAYFPQRSKGSRTPAYRWDCTVTRRSWSAHGSASTLVCARVRRSAPFTIGRANDRQRSAAEGDDARTPAHLTTLSTRSQQPKQAKQNTGSSMNSAGTGAPAKAAGVSASSLSMPKHKLVLLGDQSVGKTSIITRFMYDTFDQQYQPTIGIDFFSKTVHLDDDRDVRLHLWDTAGQERFHSLIPSYIRNSAATVVVYDITSRPTFFSAFKWIDEVRSESGADVVIMLVGNKVDQASERREVSAEEAMKKASECSVLFMEVSAKHGTNIKHMFRQVAAALPAPASTGGGAGVTGATSSSAGGVGAAGASGSGASAPGISAGQFGGIVRSPFLITPSAMQAASNGTGGAGEADGANPNAQGGRGGACC”, the “soluble on expression in E. coli” value was “not soluble”. In the case of “MGHHHHHHSHMKVAQAKLKEIGPDDMNMEEYKKWHEDYSLFRKVSVYLLTGLELYQKGKYQEALSYLVYAYQSNAALLMKGPRRGVKESVIALYRRKCLLELNAKAASLFETNDDHSVTEGINVMNELIIPCIHLIINNDISKDDLDAIEVMRNHWCSYLGQDIAENLQLCLGEFLPRLLDPSAEIIVLKEPPTIRPNSPYDLCSRFAAVMESIQGVSTVTVK”, the “soluble on expression in E. coli” value is reported as “not soluble”. For “MSLEKQFFHPDRVKYDKDCFTIEGKDIFILSAAFHYFRCPQELWRDRFRKIKEAGFNTVETYVPWNWHERNMPKSVDDYSQCNFDDLKAWLHMAHEEFGLYTIVRPGPFICAEWAGGAYPRWLAKFCPDSYDTSFWLRSNHPEHMKWSEHWYNAVCRVFSEEQLTRKQPGEKGIIMVQLENEYIYFDMESEKKEEFLRVLSDACIRNGIDVPLFTCVTPEVRGSHDPVISQLFDMDNQYVWWNMHEAKSRIEKLKAEQPNAPAFVCELQGGWFSTVGGRLSEDSYLDGRHARGMALMAMAGGSTGLNYYMFFGGTHFAGWGARRMTTTYDYGAPLKENGGVGEKYAAVKGIGEVVDKFGGLLVRSRPVRFDVQGADNLTIGIRRAADGTLFVFLLNRDKKQAFRQLVNLTVEGKPMRIDCQLAALDSKLLVVHAGTDTVEWYPREQTLPEREGHHHHHH”, the “soluble on expression in E. coli” value was “soluble”. In the case of “MNIEQLSQSLEHMANQAATLDRQRGEHHVPLFDERLFSCRSRLLTPCVKEAKSTLDAIIREQNENKLTALRAEYLTERLVAQIGAIQREISTTKIRKNEIKHSSHFRKPINVLYQELAQHQEWARRLREMVLEKERAVETAPSFMRAEAQKVLLATEQRLARCEAALLKLENQITHREKHQ”, the “soluble on expression in E. coli” value is reported as “soluble”. In the case of “MNYDAKQPPANLADSIQQKETVQALYDLLDKNMADFDASLAGMDKAETADLKEVSDTREIYDFIRYHYGEFGQREAELLLRMENPLNFIVENWPCHNLETLAMNYLADKTIKEPNKKEMPQSGHDTKDAEKPSILKQIKTNQGQIKANRQETRQQSITAERPRDGEAR”, the “soluble on expression in E. coli” value is reported as “not soluble”. In the case of “MKTRLNKTSLNQALLPTSTAGSLPKPLWLAEPETLWSPWKLQGEELITGKHDALRLSLQDQQLAGIDIVSDGEQTRQHFVTTFIEHLNGVDFSKRKIVKIRDRYDASVPTVVGPVSRQKSVFVEDAKFLRKQTTQPIKWALPGPMTMIDTLYDDHYKSREKLAWEFAKILNEEAKELEAAGVDIIQFDEPAFNVFFDEVNDWGIACLERAIEGLKCETAVHICYGYGIKANTDWKKTLGSEWRQYEEVFPKLQKSNIDIISLECHNSHVPMELLELIRGKKVMVGAIDVATDTIETAEEVADTLRKALKFVDADKLYPCTNCGMTPLSHQVTRGKLNALSAGAEIVRKELLALR”, the “soluble on expression in E. coli” value is reported as “soluble”. For “MGSDKIHHHHHHMSNVKTAEFKRPQLSLPHSADKLLLHSCCAPCSGEVMEAITASGIDYTIFFYNPNIHPQREYLIRKEENIRFAEQHNVPFIDADYDSDNWFERAKGMEWEPERGIRCTMCFDMRFERTALYAAENGFSVISSSLGISRWKNMQQINECGQNAAQKYPGVTYWDYNWRKGGGSARMIEISKREHFYQQEYCGCIYSLRDSNKHRKSQGRDIIRIGKLYYGDEAE”, the “soluble on expression in E. coli” value was “not soluble”. With “MMHQLYPQVAHHYRYELNKDMHIAAAHFIPHEAAGSCANVHGHTYIVNVTIAGDELDESGFLVNFQTLKQLVHRKLDHTLLNDHSDWFDGHDPNRFPTSEVVARTIYETIQRYLDTLPHKPKCLQVFVRETPTSYVVYRPKAGER” the “soluble on expression in E. coli” value was “soluble”. With “MPLSQEESTLIERATATINSIPISEDYSVASAALSSDGRIFTGVNVYHFTGGPCAELVVLGTAAAAAAGNLTCIVAIGNENRGILSPCGRCRQVLLDLHPGIKAIVKDSDGQPTAVGIRELLPSGYVWEG” the “soluble on expression in E. coli” value was “soluble”. For “MNKEITFDKLPEAVTYLTEQVSAIKEMVSALHPPVPEEKSLIGIDEACVIIQKAKPTIYALVRKGIVPAYKRGKKLYFYKEELLQWVESGRKGATTAISSEEQLAMMRQEVRRKPKSIK”, the “soluble on expression in E. coli” value was “not soluble”. For “MGSDKIHHHHHHMNSKNPRTTIPAPLQSILSAIPLFAPLPPDDINTLSKLIEIQVFPKNRTILHEADTANYMYLVLAGKVRVVQHSNDGTEQVLAIHRKGAFFGEMALLDGRTSPATLIAHEDATVGLIARTAFENQILTNDRMLRQIISVLCSRLRESWFLMKLSRFSSAEQKVRGVLKYLGTQYGVDDSRGKILSIKLTHRTVAGYASVSRETASRILGRFSRAGEIELLASRRMLLKPTLFLNPPFL”, the “soluble on expression in E. coli” value was “not soluble”.
